Source: patent US20200199241A1 (Chugai, published 2020)

T1: mouse FcγRIV (mouse, UniProt A0A0B4J1G0 21-203)
T1 construct: bought; also called mFcgRIV; mFcgR IV; the vendor's purification tag not given
T1 sequence: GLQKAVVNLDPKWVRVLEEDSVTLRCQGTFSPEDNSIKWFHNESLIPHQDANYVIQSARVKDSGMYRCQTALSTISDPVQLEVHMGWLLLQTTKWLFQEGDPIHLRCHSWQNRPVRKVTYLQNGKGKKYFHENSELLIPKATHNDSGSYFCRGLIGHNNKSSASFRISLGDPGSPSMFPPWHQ

T2: mouse FcγRIII (mouse, UniProt P08508 31-215)
T2 construct: bought; also called mFcgRIII; mFcgR III
T2 sequence (looked up): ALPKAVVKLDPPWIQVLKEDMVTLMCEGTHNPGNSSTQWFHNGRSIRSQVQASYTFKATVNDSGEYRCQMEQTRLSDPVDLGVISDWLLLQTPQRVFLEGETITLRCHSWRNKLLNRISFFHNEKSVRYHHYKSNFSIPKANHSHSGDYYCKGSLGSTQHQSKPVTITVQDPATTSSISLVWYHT

T3: mouse FcγRIIb (mouse, UniProt P08101 30-207, limits assumed)
T3 construct: bought; also called mFcgRIIb; mFcgR IIb
T3 sequence (looked up): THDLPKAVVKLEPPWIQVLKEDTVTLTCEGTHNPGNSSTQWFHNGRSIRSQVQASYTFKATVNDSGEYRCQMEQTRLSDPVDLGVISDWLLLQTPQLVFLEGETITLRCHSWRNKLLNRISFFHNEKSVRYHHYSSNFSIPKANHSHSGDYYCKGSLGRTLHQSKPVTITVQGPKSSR

T4: mouse FcγRI (mouse, UniProt P26151 25-297)
T4 construct: bought; also called mFcgRI; mFcgR 1
T4 sequence (looked up): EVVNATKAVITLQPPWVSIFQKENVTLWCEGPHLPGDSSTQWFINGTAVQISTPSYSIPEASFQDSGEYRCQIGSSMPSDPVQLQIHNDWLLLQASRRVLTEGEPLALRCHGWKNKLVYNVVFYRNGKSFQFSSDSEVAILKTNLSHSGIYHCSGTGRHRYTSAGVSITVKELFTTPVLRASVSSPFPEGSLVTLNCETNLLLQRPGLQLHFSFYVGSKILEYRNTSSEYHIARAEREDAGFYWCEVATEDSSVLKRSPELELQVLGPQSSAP

T5: human FcγRIIa(H) (human, UniProt P12318 36-217)
T5 construct: also called hFcgRIIa(H); FcγRIIa type H
T5 sequence: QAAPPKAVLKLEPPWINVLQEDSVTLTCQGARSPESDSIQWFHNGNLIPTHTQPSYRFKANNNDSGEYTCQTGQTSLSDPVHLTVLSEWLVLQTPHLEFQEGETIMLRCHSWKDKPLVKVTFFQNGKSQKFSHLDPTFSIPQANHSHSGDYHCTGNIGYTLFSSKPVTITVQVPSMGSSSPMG

T6: human FcγRIIa(R) (human, UniProt P12318 36-217)
T6 construct: also called hFcgRIIa(R); FcγRIIa type R
T6 chain: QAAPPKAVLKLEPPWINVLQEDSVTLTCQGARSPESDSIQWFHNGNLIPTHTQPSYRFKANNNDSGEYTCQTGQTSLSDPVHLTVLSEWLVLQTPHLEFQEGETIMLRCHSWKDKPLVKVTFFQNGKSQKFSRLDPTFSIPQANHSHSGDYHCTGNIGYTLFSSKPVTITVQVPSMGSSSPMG

T7: human FcγRIIb (human, UniProt P31994 43-217, limits assumed)
T7 construct: also called hFcgRIIb; FcγIIB
T7 sequence: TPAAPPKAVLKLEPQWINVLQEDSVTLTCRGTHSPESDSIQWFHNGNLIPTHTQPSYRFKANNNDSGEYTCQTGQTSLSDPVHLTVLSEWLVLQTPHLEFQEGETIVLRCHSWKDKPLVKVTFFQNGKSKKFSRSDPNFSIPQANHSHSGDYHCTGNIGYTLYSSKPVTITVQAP

B1: antibody with VH3-IgG1-F821 heavy chain and L(WT)-CK light chain (antibody)
heavy: QVQLQESGPGLVKPSETLSLTCAVSGHSISHDHAWSWVRQPPGEGLEWIGFISYSGITNYNPSLQGRVTISRDNSKNTLYLQMNSLRAEDTAVYYCARSLARTTAMDYWGEGTLVTVSSASTKGPSVFPLAPSSKSTSGGTAALGCLVKDYFPEPVTVSWNSGALTSGVHTFPAVLQSSGLYSLSSVVTVPSSSLGTQTYICNVNHKPSNTKVDKKVEPKSCDKTHTCPPCPAPELRGGPKVFLFPPKPKDTLYISRTPEVTCVVVDVSHEDPEVKFNWYVDGVEVHNAKTKPREEQYNSTYRVVSVLTVLHQDWLNGKEYKCKVSNKALPAPIEKTISKAKGQPREPQVYTLPPSRDELTKNQVSLTCLVKGFYPSDIAVEWESNGQPENNYKTTPPVLDSDGSFFLYSKLTVDKSRWQQGNVFSCSVMHEALHYHYTQKSLSLSP
light: not shown
notes: L235R/S239K/M252Y/N434Y; copies: 2 + 2
B2: antibody with VH3-IgG1-F890 heavy chain and L(WT)-CK light chain (antibody)
heavy: QVQLQESGPGLVKPSETLSLTCAVSGHSISHDHAWSWVRQPPGEGLEWIGFISYSGITNYNPSLQGRVTISRDNSKNTLYLQMNSLRAEDTAVYYCARSLARTTAMDYWGEGTLVTVSSASTKGPSVFPLAPSSKSTSGGTAALGCLVKDYFPEPVTVSWNSGALTSGVHTFPAVLQSSGLYSLSSVVTVPSSSLGTQTYICNVNHKPSNTKVDKKVEPKSCDKTHTCPPCPAPELLGGPSVFLFPPKPKDTLYISRTPEVTCVVVDVSHEDPEVKFNWYVDGVEVHNAKTKPREEQYNSTYRVVSVLTVLHQDWLNGKEYKCKVSNKALPAPIEKTISKAKGQPREPQVYTLPPSRDELTKNQVSLTCLVKGFYPSDIAVEWESNGQPENNYKTTPPVLDSDGSFFLYSKLTVDKSRWQQGNVFSCSVMHEALHYHVTQKSLSLSP
light: not shown
notes: M252Y/N434Y/Y436V; copies: 2 + 2

How the values were obtained:
mouse FcγRIV = target: T1, mouse FcγRIV; assay: SPR, antibody captured by Protein L, mouse FcγR as analyte, pH 7.4, 25 C
mouse FcγRIII = target: T2, mouse FcγRIII; assay: as above
mouse FcγRIIb = target: T3, mouse FcγRIIb; assay: as above
mouse FcγRI = target: T4, mouse FcγRI; assay: as above
[1] = target: T8, human FcRn (soluble human FcRn complexed with β2-microglobulin) (human, UniProt P61769 21-119, limits assumed); assay: SPR, antibody captured by Protein L, human FcRn as analyte, pH 7.0, 25 C
T8 construct: also called hFcRn
T8 sequence (chain, as listed by the source limits assumed, chain 1 of 2): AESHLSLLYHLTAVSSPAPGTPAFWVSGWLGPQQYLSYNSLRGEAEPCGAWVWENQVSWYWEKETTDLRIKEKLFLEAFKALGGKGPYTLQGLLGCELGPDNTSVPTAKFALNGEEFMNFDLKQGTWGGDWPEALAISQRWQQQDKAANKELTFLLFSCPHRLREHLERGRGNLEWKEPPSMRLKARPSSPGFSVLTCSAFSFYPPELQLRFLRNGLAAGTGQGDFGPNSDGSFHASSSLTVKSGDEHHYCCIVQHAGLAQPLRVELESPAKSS
T8 sequence (P61769 21-119 limits assumed, chain 2 of 2): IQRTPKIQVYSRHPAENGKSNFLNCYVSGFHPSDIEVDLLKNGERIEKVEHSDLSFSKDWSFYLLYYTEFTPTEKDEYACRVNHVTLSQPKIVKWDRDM

human FcγRIIa(H) = target: T5, human FcγRIIa(H); assay: SPR, antibody captured by Protein L, human FcγR as analyte, pH 7.4, 25 C;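 note: biacore T100 or T200 with Protein L amine-coupled on a CM4 chip, FcγRs diluted in ACES saline with polysorbate 20, buffer-only injection as blank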
human FcγRIIIa(V) = target: T9, human FcγRIIIa(V) (human, UniProt P08637 17-208, limits assumed); assay: as above
T9 construct: also called hFcgRIIIa(V); allotype V158
T9 sequence (P08637 other isoform, or with tags, fused parts or gaps limits assumed): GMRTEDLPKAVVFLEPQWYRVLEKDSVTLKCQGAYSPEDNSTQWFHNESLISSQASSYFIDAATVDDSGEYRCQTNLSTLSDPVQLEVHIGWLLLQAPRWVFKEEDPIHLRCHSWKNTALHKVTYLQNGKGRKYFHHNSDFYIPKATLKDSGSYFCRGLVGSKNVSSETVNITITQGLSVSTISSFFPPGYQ

human FcγRIa = target: T10, human FcγRIa (human, UniProt P12314 16-292, limits assumed); assay: as above
T10 construct: also called hFcgRIa; hFcgRI
T10 sequence (P12314 16-292 limits assumed): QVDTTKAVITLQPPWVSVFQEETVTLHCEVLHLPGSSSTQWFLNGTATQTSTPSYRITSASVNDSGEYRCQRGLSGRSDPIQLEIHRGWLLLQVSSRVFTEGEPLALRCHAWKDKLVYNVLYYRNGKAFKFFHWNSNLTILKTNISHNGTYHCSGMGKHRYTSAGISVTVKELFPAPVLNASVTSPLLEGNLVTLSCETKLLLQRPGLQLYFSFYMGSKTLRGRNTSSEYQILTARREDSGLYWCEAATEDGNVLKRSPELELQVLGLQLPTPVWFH

human FcγRIIa(R) = target: T6, human FcγRIIa(R); assay: as above
human FcγRIIb = target: T7, human FcγRIIb; assay: as above

Binder | BINDING AMOUNT (RU) (mouse FcγRIV) | BINDING AMOUNT (RU) (mouse FcγRIII) | BINDING AMOUNT (RU) (mouse FcγRIIb) | BINDING AMOUNT (RU) (mouse FcγRI) | Kd [1] | BINDING AMOUNT (RU) (human FcγRIIa(H)) | BINDING AMOUNT (RU) (human FcγRIIIa(V)) | BINDING AMOUNT (RU) (human FcγRIa) | BINDING AMOUNT (RU) (human FcγRIIa(R)) | BINDING AMOUNT (RU) (human FcγRIIb)
B1 | -3.8 RU | -20.3 RU | -4.5 RU | 0.6 RU | 310 nM |  |  |  |  | 
B2 | 230 RU | 284 RU | 69.3 RU | 268 RU | 110 nM | 117 RU | 180 RU | 363 RU | 128 RU | 54.1 RU
